Test results taken from patent EP1891228B1 (Janssen Pharmaceutica NV, dated 2016).

Molecular target: HDAC1-flag (Homo sapiens (Human), UniProt Q13547 1-482)
Experiment: cell-based or functional assay

Chain of HDAC1-flag (Q13547 whole entry, form in doubt): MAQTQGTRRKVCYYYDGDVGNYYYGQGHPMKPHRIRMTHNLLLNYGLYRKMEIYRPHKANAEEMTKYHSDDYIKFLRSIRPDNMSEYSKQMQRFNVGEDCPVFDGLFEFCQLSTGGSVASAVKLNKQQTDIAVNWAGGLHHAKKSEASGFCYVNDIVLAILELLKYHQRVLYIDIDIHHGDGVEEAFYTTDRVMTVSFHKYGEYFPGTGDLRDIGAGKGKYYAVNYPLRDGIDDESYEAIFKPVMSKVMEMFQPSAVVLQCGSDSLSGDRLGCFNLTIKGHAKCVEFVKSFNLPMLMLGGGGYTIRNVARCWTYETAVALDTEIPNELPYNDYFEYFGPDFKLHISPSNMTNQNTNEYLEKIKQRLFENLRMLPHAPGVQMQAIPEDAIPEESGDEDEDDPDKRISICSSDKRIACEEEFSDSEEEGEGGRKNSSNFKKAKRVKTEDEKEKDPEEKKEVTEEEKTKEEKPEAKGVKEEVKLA

B1: V5-APPL (full length APPL) (other, not shown: small tags and cut ends)
chain: MPGIDKLPIEETLEDSPQTRSLLGVFEEDATAISNYMNQLYQAMHRIYDAQNELSAATHLTSKLLKEYEKQRFPLGGDDEVMSSTLQQFSKVIDELSSCHAVLSTQLADAMMFPITQFKERDLKEILTLKEVFQIASNDHDAAINRYSRLSKKRENDKVKYEVTEDVYTSRKKQHQTMMHYFCALNTLQYKKKIALLEPLLGYMQAQISFFKMGSENLNEQLEEFLANIGTSVQNVRREMDSDIETMQQTIEDLEVASDPLYVPDPDPTKFPVNRNLTRKAGYLNARNKTGLVSSTWDRQFYFTQGGNLMSQARGDVAGGLAMDIDNCSVMAVDCEDRRYCFQITSFDGKKSSILQAESKKDHEEWICTINNISKQIYLSENPEETAARVNQSALEAVTPSPSFQQRHESLRPAAGQSRPPTARTSSSGSLGSESTNLAALSLDSLVAPDTPIQFDIISPVCEDQPGQAKAFGQGGRRTNPFGESGGSTKSETEDSILHQLFIVRFLGSMEVKSDDHPDVVYETMRQILAARAIHNIFRMTESHLLVTCDCLKLIDPQTQVTRLTFPLPCVVLYATHQENKRLFGFVLRTSSGRSESNLSSVCYIFESNNEGEKICDSVGLAKQIALHAELDRRASEKQKEIERVKEKQQKELNKQKQIEKDLEEQSRLIAASSRPNQASSEGQFVVLSSSQSEESDLGEGGKKRESEA
Q: Which “HDAC1 activity: release of acetic acid from a [3H]acetyl-labeled Histone H4 peptide by immunoprecipitated HDAC1” value does the source give for B1 here?
A: The value was roughly 4 fold.
